Measured values as given in patent EP4585618A1 (Jiangsu Hengrui Pharmaceuticals Co., Ltd., dated 2025).
Changes are numbered by the printed parent chain.

B1: humanized antibody huP1-G7 (antibody, human IgG4 S228P, kappa, F234A L235A, V domains shown)
VH: EVQLQESGPGLVKPSQTLSLTCTVSGYSITSGYYWNWIRQHPGKGLEWIGYISYDGGNNYNPFLKNRVTISRDTSKNQFSLKLSSVTAADTAVYYCAREGGSSWEYYGMDYWGQGTTVTVSS
VL: DIQMTQSPSSLSASVGDRVTITCRASENIYRNLAWYQQKPGKAPKLLLYAATNLADGVPSRFSGSGSGTDFTLTISSLQPEDFATYYCQQFWGSPYTFGGGTKVEIKR
notes: Full chains; also called P1-G7H1L1
B2: humanized antibody huP1-D7 (antibody, human IgG4 S228P, kappa, F234A L235A, V domains shown)
VH: EVQLVQSGAEVKKPGASVKVSCKASGYTFTTYGMNWVRQAPGQGLEWMGWINTYSGVPTYAEDFKGRVTMTTDTSTSTAYMELRSLRSDDTAVYYCARRTDYDGYVMDSWGQGTTVTVSS
VL: DIVMTQSPDSLAVSLGERATINCKSSQSLFYSGNQKNYLAWYQQKPGQSPKLLLYWASTRESGVPDRFSGSGSGTDFTLTISSLQAEDVAVYYCQQYFSYPPTFGGGTKVEIKR
notes: Full chains; also called P1-D7H1L1
B3: chimeric antibody ChP2-C2 (antibody, human IgG4 S228P, kappa, F234A L235A, V domains shown)
VH: QVQLKQSGPGLVQPSQSLSITCTVSGFSLTSYGVHWVRQSPGKGLEWLGVIWSGGHTDLNAAFISRLSINKDNSKSQVFFKMNSLQGDDTAIYYCARNGYGGCLDYWGQGTTLTVSS
VL: DIVMTQSHKFMSTSVGDRVSITCKAGQDVSIAVAWYQQKPGQSPQLLIYSASYRYTGVPDRFTGSGSGTDFTFAISSVQAEDLAVYYCQQYYSIPPSFGAGTKLEIKR
notes: Murine variable regions with hIgG4(LALA) and CL constant regions; also called M P2-C2
B4: chimeric antibody ChP2-B9 (antibody, human IgG4 S228P, kappa, F234A L235A, V domains shown)
VH: EVQLQQSGPELVKPGASVKISCKASGYTFTDYFMNWVKLSHGKSLEWIGDINPNNGGTSYNQRFKDKVTLTVDKSSSTAYMELRSLTSDSSAVYFCARNGYYDSNYLSYFDVWGTGTTVTVSS
VL: DIQMTQSPASLSVSVGETVTITCRASENIYSNLAWYQQKQGKSPQLLVYGATNLADGVPSRFSGSGSGTQYSLKINSLQSEDFGSYYCQHFWDTPYTFGGGTKLEIKR
notes: Murine variable regions with hIgG4(LALA) and CL constant regions; also called M P2-B9
B5: chimeric antibody ChP1-B4 (antibody, human IgG4 S228P, kappa, F234A L235A, V domains shown)
VH: QVQLKQSGPGLVQPSQSLSITCTVSSFSLTNYGVHWVRQSPGKGLEWLGVIWTGGSTDYNAAFISRLSIIRDNSKSQVFFKMNSLQADDTAMYYCAITTVVTAMDYWGQGTSVTVSS
VL: DIVMTQSHKFMSTSVGDRVSITCKASQDVNIAVVWYQQKPGQSPKLLIYAASYRYTGVPDRFTGSGSGTDFTFTISSVQAEDLAVYYCQQHYSSPYTFGGGTKLEIKR
notes: Murine variable regions with hIgG4(LALA) and CL constant regions; also called M P1-B4
B6: chimeric antibody ChP2-C4 (antibody, human IgG4 S228P, kappa, F234A L235A, V domains shown)
VH: QVQLKESGPGLVAPSQSLSITCTVSGFSLSTYAIGWVRQPPGKGLEWLGVIWTGGGTSYNSALKSRLSISKDNSKSQVFLKMNSLQTDDTARYYCARGDYGPFAYWGQGTLVTVSS
VL: B5 VL with V15L, T22S, N30S, V34A, P40A, A50S, Y55H, S94T, Y96F, G100S
notes: Murine variable regions with hIgG4(LALA) and CL constant regions; also called M P2-C4
B7: chimeric antibody ChP2-C10 (antibody, human IgG4 S228P, kappa, F234A L235A, V domains shown)
VH: QVQLQQPGAELVKPGASVKLSCKASGYTFTSYWMHWVKQRPGQGLEWIGVIHPNSDTTNYNEKFKNKATLTVDKSSSTAYMQLSSLTSEDSAVYYCATRYDYAYYAMDYWGQGTSVTVSS
VL: B5 VL with N30T, I31T, V34A, A50S, Y87H, S94T, P95S, Y96P, K103M
notes: Murine variable regions with hIgG4(LALA) and CL constant regions; also called M P2-C10
B8: chimeric antibody ChP1-B9 (antibody, human IgG4 S228P, kappa, F234A L235A, V domains shown)
VH: QVQLKQSGPGLVQPSQSLSITCTVSGFSLTSYGVHWVRQSPGKGLEWLGVIWSGGNTDYNAAFMSRLRINKDNSKSQVFFKMNSLQGSDTAIYYCATPYDVVPFAYWGQGTLVTVSS
VL: B5 VL with V34A, Q42L, A50S, D60G, Q79K, S94I, Y96F, G100A
notes: Murine variable regions with hIgG4(LALA) and CL constant regions; also called M P1-B9
B9: chimeric antibody ChP2-F4 (antibody, human IgG4 S228P, kappa, F234A L235A, V domains shown)
VH: EVQLVESGGGLVKPGGSLKLSCAASGFTFSDYGMHWVRQAPEKGLEWVAYISSGSRIIYYADTVKGRFTISRDNAKNTLFLQMTSLRSEDTAMYSCARFYNYAHYTMDYWGQGTSVTVSS
VL: B5 VL with N30S, I31T, V34A, A50S, A84T, V85L, Q90H, S94T, Y96P
notes: Murine variable regions with hIgG4(LALA) and CL constant regions; also called M P2-F4
B10: chimeric antibody ChP2-B3 (antibody, human IgG4 S228P, kappa, F234A L235A, V domains shown)
VH: QVQLKQSGPGLVQPSQSLSITCTVSGFSLTNYGVHWFRQSPGKGLEWLGMIWSGGNTDYNAAFTSRLIITKDNSKSQVFFKMNSMQADDTAIYYCARGDYGSSSAYWGQGTLVTVSS
VL: B5 VL with N30S, V34A, A50S, S94N, P95T, Y96L, G100A
notes: Murine variable regions with hIgG4(LALA) and CL constant regions; also called M P2-B3
B11: chimeric antibody ChP2-E8 (antibody, human IgG4 S228P, kappa, F234A L235A, V domains shown)
VH: EVQLLESGGGLVKPGGSLKLSCAASGFTFSDYGIHWVRQAPEKGLEWVAYISSGSSIINYADTVKGRFTISRDNAKNTLLLQMTSLRSEDTAMYYCARGPNYYGSSYLLVYWGQGTLVTVSS
VL: B5 VL with V34A, K39R, A50S, S93N, S94I, Y96W
notes: Murine variable regions with hIgG4(LALA) and CL constant regions; also called M P2-E8
B12: chimeric antibody ChP1-F7 (antibody, human IgG4 S228P, kappa, F234A L235A, V domains shown)
VH: DVQLQESGPGLVKPSQSLSLTCSVTGYSITSGYYWNWIRQFPGNKLEWMGYISYDGNNYYNPSLKNRISVTRDTSKNQFFLKLNSVTSEDTATYYCAREDGSYSDYDGFAYWGQGTLVTVSS
VL: B4 VL with S26N, G50A, P59S, K74R, H90Q, D93G
notes: Murine variable regions with hIgG4(LALA) and CL constant regions; also called M P1-F7
B13: chimeric antibody ChP2-E3 (antibody, human IgG4 S228P, kappa, F234A L235A, V domains shown)
VH: EVQLQQSGPELVKPGASVKISCKASGYTFTDYYMNWVKQSHGKSLEWIGDINPNNGGTSYNQKFKGKATLTVDKSSSTAYMELRSLTSEDSTVYYCARGGVTTVVATYWYFDVWGTGTTVTVSS
VL: B4 VL with G50A, L54V, S65G, H90Q, Y96F, G100S
notes: Murine variable regions with hIgG4(LALA) and CL constant regions; also called M P2-E3
B14: chimeric antibody ChP2-C7 (antibody, human IgG4 S228P, kappa, F234A L235A, V domains shown)
VH: EVQLQQSGPELVKPGTSVKMSCKASGYTFTDYSMHWVRQSHGKSLEWIGYFNPNNGDTIYNQKFKGKATLTVNKSSSTAYMELRSLTSDDSAVYYCAREDSVSTNAWDGALDYWGQGTSVTVSS
VL: B4 VL with A25T, T94I, Y96W, K103T
notes: Murine variable regions with hIgG4(LALA) and CL constant regions; also called M P2-C7
B15: chimeric antibody ChP2-G9 (antibody, human IgG4 S228P, kappa, F234A L235A, V domains shown)
VH: DVQLQESGPGLVKPSQSLSLACSVTGSSITSGYYWNWIRQFPGNKLEWMGYLSYDGSNNYNPSLKNRISITRDTSKSQFFLKLNSVTPEDTATYYCAREGAHYSGTLSWFAYWGQGTLVTVSS
VL: B4 VL with G50A
notes: Murine variable regions with hIgG4(LALA) and CL constant regions; also called M P2-G9
B16: chimeric antibody ChP2-F10 (antibody, human IgG4 S228P, kappa, F234A L235A, V domains shown)
VH: DVQLQESGPGLVKPSQSLSLTCSVTGYSIASGYYWNWIRQFPGNKLEWMGYITYDGSNNYNPSLKNRISITRDTSKNQFFLKLNSVTTEDTATYYCAREYSYGSTLSWFAYWGQGTLVTVSS
VL: B4 VL with V13I, G50A
notes: Murine variable regions with hIgG4(LALA) and CL constant regions; also called M P2-F10
B17: chimeric antibody ChP1-G7 (antibody, human IgG4 S228P, kappa, F234A L235A, V domains shown)
VH: DVQLQESGPGLVKPSQSLSLTCSVTGYSITSGYYWNWIRQFPENKLEWMGYISYDGGNNYNPFLKNRISITRDTSKNQFFLNLNSVTIEDTATYYCAREGGSSWEYYGMDYWGQGTSVTVSS
VL: B4 VL with S31R, K42H, V48L, G50A, H90Q, D93G, T94S
notes: Murine variable regions with hIgG4(LALA) and CL constant regions; also called M P1-G7
B18: chimeric antibody ChP2-C6 (antibody, human IgG4 S228P, kappa, F234A L235A, V domains shown)
VH: EVQLQQSGPELVKPGASVKMSCEASGYTFTDYYIHWVKQSHGESLEWIGYIYPDNGYNGYNQKFKGKATLTVDKSSNTAYMELRSLTSEDSAVYFCTRRGDYSGVHFDYWGQGTALTVSS
VL: DIVLTQSPASLAVSLGQRATISCRASESVNNYGVGFLHWYQQKPGQPPKLLIYRASTLESGIPARFSGSGSRTDFTLTINPVETDDVATYYCQHSYKDPPWTFGGGTKLEIKR
notes: Murine variable regions with hIgG4(LALA) and CL constant regions; also called M P2-C6
B19: chimeric antibody ChP1-D10 (antibody, human IgG4 S228P, kappa, F234A L235A, V domains shown)
VH: QVQLKQSGPGLVQPSQSLSITCTVSGFSLTTYGVHWVRQSPGKGLEWLGVIWSGGNTDSNAAFISRLSISKDNSKSQVFFKMNNLQADDTAIYYCARYSYAMDYWGQGTSVTVSS
VL: DIVMTQSHKFMSTSVGDRVSITCKASQDVSNGVAWYQQKPGQSPKVLIYAASYRYTGVPDRFTGSGSGTDFTFTIGSVQAEDLALYYCQQHYSTPFTFGSGTMLEIKR
notes: Murine variable regions with hIgG4(LALA) and CL constant regions; also called M P1-D10
B20: chimeric antibody ChP2-E7 (antibody, human IgG4 S228P, kappa, F234A L235A, V domains shown)
VH: QVQLQQPGTELVKPGASVKLSCKASGYTFTSYWMHWVKQSPGQGLEWIGNINPSNGGPNYNENFKTKATLTVDKSSSTAYMQLNSLTSEDSAVYYCAGGDYYGGSYLFAYWGQGTLVTVSS
VL: B5 VL with I2T, I21V, V34A, A50S, A51S, G68E, S93T, S94F
notes: Murine variable regions with hIgG4(LALA) and CL constant regions; also called M P2-E7
B21: chimeric antibody ChP2-G4 (antibody, human IgG4 S228P, kappa, F234A L235A, V domains shown)
VH: EVQLQQSGPELVKPGASVKMSCKASGYTFTDYNMHWVKQSHGKSLEWIGYINPNNGGTTYNQKFKGKATLTVNKSSSTAYMELRSLTSEDSAVYYCASSEYYGSTFLFAYWGQGTLVTVSS
VL: B5 VL with S20G, N30S, V34A, A50S, V85A, S94T, Y96W
notes: Murine variable regions with hIgG4(LALA) and CL constant regions; also called M P2-G4
B22: chimeric antibody ChP2-E11 (antibody, human IgG4 S228P, kappa, F234A L235A, V domains shown)
VH: QVQLQQSGPELVKPGASVKISCKASAYTFTDYYINWVKQRPGQGLEWIGWIFPGSGSTYYNEKFKGKATLTVDKSSSTAYMLVSSLTSEDSAVYFCARSGTLVAPYAMDYWGQGTSVTVSS
VL: SIVMTQTPKFLLVSAGDRVTITCKASQSVSNDVAWYQQKPGQSPKLLIYYTSNRYTGVPDRFTGSGYGTDFTFTISTVQAEDLAVYFCQQDYSFPLTFGAGTKLEIKR
notes: Murine variable regions with hIgG4(LALA) and CL constant regions; also called M P2-E11

Each binder was assayed against T1, His-tagged ILT4 protein extracellular domain: ILT4-His (human, UniProt Q8N423 22-460) (assay: SPR (Biacore), antibody captured on Protein A chip, ILT4-His as analyte, 1:1 model).
T1 construct: Expressed in 293 cells; also called human ILT4-His protein
T1 sequence (Q8N423 other isoform, or with tags, fused parts or gaps limits assumed): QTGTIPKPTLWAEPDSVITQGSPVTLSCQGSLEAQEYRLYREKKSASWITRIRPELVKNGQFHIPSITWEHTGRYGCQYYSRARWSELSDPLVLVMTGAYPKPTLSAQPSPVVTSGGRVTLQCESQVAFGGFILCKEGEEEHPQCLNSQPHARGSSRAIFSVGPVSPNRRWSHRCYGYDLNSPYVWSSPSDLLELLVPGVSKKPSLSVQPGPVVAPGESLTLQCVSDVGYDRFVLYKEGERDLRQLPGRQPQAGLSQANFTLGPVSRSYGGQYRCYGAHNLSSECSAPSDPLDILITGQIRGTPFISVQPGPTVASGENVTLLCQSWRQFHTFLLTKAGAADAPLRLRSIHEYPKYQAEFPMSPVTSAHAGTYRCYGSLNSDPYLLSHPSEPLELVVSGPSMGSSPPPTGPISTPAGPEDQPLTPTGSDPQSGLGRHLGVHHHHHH

Binder	Kd	koff	kon
B1	0.158 nM	7.2e-05 s⁻¹	457000 M⁻¹ s⁻¹
B2	3.98 nM	0.0103 s⁻¹	2.59e+06 M⁻¹ s⁻¹

The binders below were run against T1, His-tagged ILT4 protein extracellular … (assay: ELISA, coated ILT4-His 1 µg/mL; Assay 5).

Binder	EC50	Top
B3	0.0493 µg/mL	1.16 absorbance at 450 nm
B4	0.0487 µg/mL	1.53 absorbance at 450 nm

The binders below were run against T1, His-tagged ILT4 protein extracellular … (assay: screening of chimeric antibodies (ILT4 protein binding, cell binding, ILT4/HLA-G blocking)).

Binder	binding result
B5	binds
B6	binds
B7	binds
B8	binds
B9	binds
B10	binds
B11	binds
B12	binds
B13	binds
B14	binds
B15	binds
B16	binds
B17	binds
B18	binds
B19	binds

What follows are binders tested against T1, His-tagged ILT4 protein extracellular … (assay: ELISA, coated ILT4-His 1 µg/mL; Assay 2).

Binder	EC50	Top
B20	0.0729 µg/mL	2 absorbance at 450 nm
B21	0.0621 µg/mL	1.83 absorbance at 450 nm
B22	0.0428 µg/mL	1.98 absorbance at 450 nm
